{"source": "patent US20230049152A1", "about": "(Genentech, published 2023)", "key": {"human CCR8 [1]": {"molecular_target": "T1, human CCR8 (human, UniProt P51685 1-355)", "T1 construct": "the assay field says which; also called hCCR8; huCCR8", "experiment": "flow cytometry, CHO-huCCR8.Gna15 cells, relative to rb.Ab4", "protocol": "Evaluation of CCR8 binding of the humanized variants with a hIgG1 Fc involved screening by flow cytometry, and comparing the relative EC₅₀ and MFI on human CCR8 CHO cells to the parental rabbit antibodies. Specifically, stable CHO-huCCR8.Gna15 cells were stained with various concentrations (starting from 10 ug/ml or 66.66 nM, 1:4 serial dilution for total 8 concentration points) of Ab4 and Ab5 variants at 4° C. for 30 minutes, then washed twice with FACS buffer (PBS with 0.5% BSA and 0.2 mM EDTA) and followed by staining with AF647-anti-hIgG at 4° C. for 15 min. Cells were washed twice with FACS buffer, and re-suspended in FACS buffer with propidium iodide (0.5 ug/ml) and analyzed with iQue3 (Sartorius)."}, "human CCR8 [2]": {"molecular_target": "T1, human CCR8", "experiment": "cell-based or functional assay"}, "Y17A": {"molecular_target": "T2, Y17A", "T2 construct": "single alanine mutant of hCCR8; also called hCCR8 Y17A", "T2 receptor chain": "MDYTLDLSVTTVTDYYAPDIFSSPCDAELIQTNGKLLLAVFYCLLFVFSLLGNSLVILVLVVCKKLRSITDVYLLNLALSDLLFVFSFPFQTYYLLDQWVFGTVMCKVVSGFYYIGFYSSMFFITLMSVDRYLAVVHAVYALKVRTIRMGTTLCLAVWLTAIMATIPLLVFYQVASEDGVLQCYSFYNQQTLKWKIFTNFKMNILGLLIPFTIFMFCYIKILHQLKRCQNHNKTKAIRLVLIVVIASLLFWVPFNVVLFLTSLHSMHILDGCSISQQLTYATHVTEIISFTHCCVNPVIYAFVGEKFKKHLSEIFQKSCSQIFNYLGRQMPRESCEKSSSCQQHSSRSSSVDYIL", "experiment": "flow cytometry, HEK293 transfected with hCCR8 Y17A with C-terminal FLAG; sheet prints [huCCR8]=0.02 ug/ml", "protocol": "(§1) FIGS. 16A-16B depict the epitope maps for hu.Ab5.H13L1 (FIG. 16A) and hu.Ab4.H12L3 (FIG. 16B) mAbs.\n(§2) To epitope map fucosylated hu.Ab5.H13L1, the binding to alanine point mutations in human CCR8 was analyzed by flow cytometry."}, "hCCR8 D6A": {"molecular_target": "T3, hCCR8 D6A (human, UniProt P51685 1-355)", "T3 construct": "alanine point mutant on transfected HEK 293 cells", "experiment": "flow cytometry, HEK293 transfected with hCCR8 D6A with C-terminal FLAG"}, "hCCR8 L5A": {"molecular_target": "T4, hCCR8 L5A (human, UniProt P51685 1-355)", "T4 construct": "alanine point mutant on transfected HEK 293 cells", "experiment": "flow cytometry on transfected HEK 293 cells", "protocol": "as §2\nConstructs encoding for individual alanine point mutations at positions 2-24 in hCCR8 with a C-terminal FLAG tag were generated. HEK 293 cells were transfected with constructs encoding for mutant hCCR8 or with a mock construct using transIT X2 (reagent:DNA=3:1) for 24 hrs, and surface stained with the huCCR8 antibody hu.Ab5.H13L1 (hIgG1), then fixed and permeabilized and followed by FITC-anti-Flag (Sigma F4049)."}, "D19A": {"molecular_target": "T5, D19A", "T5 construct": "single alanine mutant of hCCR8; also called hCCR8 D19A", "T5 receptor chain": "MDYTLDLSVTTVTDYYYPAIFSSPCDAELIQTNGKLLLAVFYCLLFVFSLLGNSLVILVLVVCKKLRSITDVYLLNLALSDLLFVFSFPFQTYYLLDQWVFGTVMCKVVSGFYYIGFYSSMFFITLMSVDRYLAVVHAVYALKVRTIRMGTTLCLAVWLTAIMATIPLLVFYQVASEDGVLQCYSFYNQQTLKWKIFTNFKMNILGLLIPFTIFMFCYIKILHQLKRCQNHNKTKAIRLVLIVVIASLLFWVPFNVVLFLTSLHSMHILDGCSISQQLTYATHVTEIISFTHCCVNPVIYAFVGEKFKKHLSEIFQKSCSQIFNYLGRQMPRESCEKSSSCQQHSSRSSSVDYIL", "experiment": "flow cytometry, HEK293 transfected with hCCR8 D19A with C-terminal FLAG; sheet prints [huCCR8]=0.02 ug/ml", "protocol": "as §1, §2"}, "L7A": {"molecular_target": "T6, L7A", "T6 construct": "single alanine mutant of hCCR8; also called hCCR8 L7A", "T6 receptor chain": "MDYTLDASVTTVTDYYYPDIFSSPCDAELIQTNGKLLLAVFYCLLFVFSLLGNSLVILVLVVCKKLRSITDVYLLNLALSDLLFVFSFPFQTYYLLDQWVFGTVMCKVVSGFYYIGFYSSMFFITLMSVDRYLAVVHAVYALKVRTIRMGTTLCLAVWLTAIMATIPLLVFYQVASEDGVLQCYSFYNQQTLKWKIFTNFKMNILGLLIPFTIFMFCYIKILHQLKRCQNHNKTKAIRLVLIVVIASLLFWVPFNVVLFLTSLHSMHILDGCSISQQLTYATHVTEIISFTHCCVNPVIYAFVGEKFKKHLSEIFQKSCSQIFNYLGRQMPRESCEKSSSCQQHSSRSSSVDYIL", "experiment": "flow cytometry, HEK293 transfected with hCCR8 L7A with C-terminal FLAG; sheet prints [huCCR8]=0.02 ug/ml"}, "P24A": {"molecular_target": "T7, P24A", "T7 construct": "single alanine mutant of hCCR8; also called hCCR8 P24A", "T7 receptor chain": "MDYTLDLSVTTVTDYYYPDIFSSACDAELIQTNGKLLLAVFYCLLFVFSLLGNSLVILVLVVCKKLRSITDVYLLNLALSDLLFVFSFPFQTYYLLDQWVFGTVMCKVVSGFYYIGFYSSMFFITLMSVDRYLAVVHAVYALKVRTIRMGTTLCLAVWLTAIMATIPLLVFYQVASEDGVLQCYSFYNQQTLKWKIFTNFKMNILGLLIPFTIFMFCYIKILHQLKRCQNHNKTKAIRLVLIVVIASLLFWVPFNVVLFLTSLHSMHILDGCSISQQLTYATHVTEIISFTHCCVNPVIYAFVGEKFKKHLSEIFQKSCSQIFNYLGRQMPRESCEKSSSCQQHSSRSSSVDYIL", "experiment": "flow cytometry, HEK293 transfected with hCCR8 P24A with C-terminal FLAG; sheet prints [huCCR8]=0.02 ug/ml"}}, "data": [{"binder": "hu.Ab4.H1L1 (antibody, human IgG1, kappa, also called hu.Ab4.H1Ll) heavy: not shown light: DYQMTQSPSSLSASVGDRVTITCQASQSISSYLSWYQQKPGKRPKLLIYKASTLASGVPSRFSGSGSGTDFTLTISSLQPEDFATYYCQQGYTSSNIDNIFGGGTKVEIKRTVAAPSVFIFPPSDEQLKSGTASVVCLLNNFYPREAKVQWKVDNALQSGNSQESVTEQDSKDSTYSLSSTLTLSKADYEKHKVYACEVTHQGLSSPVTKSFNRGEC", "values": [{"measurement": "Relative EC50", "setting": "human CCR8 [1]", "value": 0.88, "unit": "ratio"}, {"measurement": "Relative MFI", "setting": "human CCR8 [1]", "value": 0.95, "unit": "ratio"}]}, {"binder": "hu.Ab4.H12L3 (antibody, human IgG1, kappa, fucosylated human IgG1; also called huCCR8-Ab4.H12L3.hIgG1; Ab4 variant) heavy: not shown light: DYQMTQSPSSLSASVGDRVTITCQASQSISSYLSWYQQKPGKAPKLLIYKASTLASGVPSRFSGSGSGTDFTLTISSLQPEDFATYYCQQGYTSSNIDNIFGGGTKVEIKRTVAAPSVFIFPPSDEQLKSGTASVVCLLNNFYPREAKVQWKVDNALQSGNSQESVTEQDSKDSTYSLSSTLTLSKADYEKHKVYACEVTHQGLSSPVTKSFNRGEC", "values": [{"measurement": "Ligand Blocking Activity IC50, Ca2+ influx", "setting": "human CCR8 [2]", "value": 57.9, "unit": "nM"}]}, {"binder": "hu.Ab5.H13L1 (antibody, human IgG1, kappa, fucosylated human IgG1; also called Ab5 variant) heavy: not shown light: DIQVTQSPSSLSASVGDRVTITCQASENIANALAWYQQKPGKPPKFLIYGASNLASGVPSRFSGSGSGTDFTFTISSLQPEDIATYYCQQAYYGNSFVEGTFGGGTKVEIKRTVAAPSVFIFPPSDEQLKSGTASVVCLLNNFYPREAKVQWKVDNALQSGNSQESVTEQDSKDSTYSLSSTLTLSKADYEKHKVYACEVTHQGLSSPVTKSFNRGEC", "values": [{"measurement": "binding result", "setting": "Y17A", "value": "binds"}, {"measurement": "binding result", "setting": "hCCR8 D6A", "value": "no binding (tested: 0.02 ug/ml)"}, {"measurement": "binding result", "setting": "hCCR8 L5A", "value": "no binding"}, {"measurement": "binding result", "setting": "D19A", "value": "binds"}, {"measurement": "binding result", "setting": "L7A", "value": "binds"}, {"measurement": "binding result", "setting": "P24A", "value": "binds"}]}]}
